US20240209086A1 (PETMEDIX, published 2024)
Positions count from the first letter of the chain named. Each block holds one binder with its values, some of them ahead of it.

What was measured:
[1] = target: T1, canine CD20 on cells (HEK293, MDCK II, CLBL-1 or native B cells) (canine, UniProt Q3C2E2 1-297); assay: cell-based or functional assay
T1 chain: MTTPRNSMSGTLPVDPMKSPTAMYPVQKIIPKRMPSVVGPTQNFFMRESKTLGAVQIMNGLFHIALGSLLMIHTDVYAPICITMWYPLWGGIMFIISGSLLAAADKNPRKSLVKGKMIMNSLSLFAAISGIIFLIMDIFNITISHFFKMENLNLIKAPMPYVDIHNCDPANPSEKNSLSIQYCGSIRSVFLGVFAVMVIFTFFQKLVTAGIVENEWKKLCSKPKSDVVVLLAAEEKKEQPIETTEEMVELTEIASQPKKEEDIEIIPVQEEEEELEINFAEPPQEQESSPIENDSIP

[2] = target: T1, canine CD20 on cells (HEK293, MDCK II, …); assay: cell-based or functional assay
[3] = target: T1, canine CD20 on cells (HEK293, MDCK II, …); assay: cell-based or functional assay
[4] = target: T1, canine CD20 on cells (HEK293, MDCK II, …); assay: flow cytometry, canine CD20 HEK293 cells, FITC anti-canine IgG
Procedure: (§1) A CD20 binding screen was performed on candidate proteins produced from the canine CD20 immunisation as described in Examples 2 and 3. CHO cells supernatants containing candidate antibodies were diluted to 10 μg/ml in FACS buffer (PBS containing 3% FBS) and screened for their ability to bind canine CD20 expressed on cell surface. In brief, 1-2×10⁵ canine CD20-expressing HEK cells were incubated with candidate mAbs for one hour at 4° C., at a fixed concentration of 10 μg/ml followed by incubation with 5 μg/ml of FITC-conjugated anti-canine IgG secondary antibody (Bethyl Laboratories) for 1 hour at 4° C. Cells incubated with anti-canine IgG FITC secondary antibody and without primary anti-canine CD20 antibody, or with isotype control primary antibody, were used as negative controls. The data were acquired on either a Beckman Coulter CytoFLEX or a BD Accuri C6 Plus flow cytometer and analysed using FlowJo software.

[5] = target: T1, canine CD20 on cells (HEK293, MDCK II, …); assay: flow cytometry, canine CD20-expressing HEK cells, 10 µg/ml
Procedure: as §1

[6] = target: T2, canine CD3εδ-Fc (heterodimer of canine CD3ε-hIgG4PE-knob and canine CD3δ-hIgG4PE-hole) (canine); assay: SPR Biacore 8K, single cycle, CD3εδ-Fc amine-coupled on CM5, antibody at 16.5, 33 and 66 nM
T2 construct: also called CD3εδ-Fc fusion protein; copies: 1 + 1
Procedure: Candidates CD3 bispecific antibodies were also screened for their ability to bind canine CD3εδ-Fc using surface plasmon resonance (SPR) using a Biacore 8K (Cytiva). Canine CD3εδ-Fc was covalently bound by amine coupling to the surface of a CM5 chip (Cytiva). CHO cell supernatant was diluted to 66, 33 and 16.5 nM in HBS-EP+ buffer and run on the chip single cycle kinetic protocol. Data was analysed using the dedicated software (Biacore Insight Evaluation Software).

T2 sequence (chain, as listed by the source mutant limits assumed): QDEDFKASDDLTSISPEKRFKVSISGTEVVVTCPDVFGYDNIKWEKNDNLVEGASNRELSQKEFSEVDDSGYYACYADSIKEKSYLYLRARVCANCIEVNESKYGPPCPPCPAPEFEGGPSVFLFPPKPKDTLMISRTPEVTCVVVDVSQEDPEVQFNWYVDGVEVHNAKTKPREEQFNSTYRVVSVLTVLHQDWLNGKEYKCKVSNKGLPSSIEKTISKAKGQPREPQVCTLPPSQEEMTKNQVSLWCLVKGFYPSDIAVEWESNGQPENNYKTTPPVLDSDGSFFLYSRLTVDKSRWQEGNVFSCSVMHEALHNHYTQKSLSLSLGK

EC50 (nM), endogenous B cell depletion in PBMC (FIG. 16A) [3]: 0.828 nM
B1: PMX172VH/PMX264VH/PMX172VL (bispecific antibody, V domains shown)
VH 1: EVQLVESGGDLVKPGGSLRLSCVASGFTFSSYHMSWVRQAPGKGLQWVAYSNSGGSRTSYADAVKGRFTISRDNAKNTLYLQMNSLRAEDTAVYYCASEGGGGRYGYKDYGMDYWGHGTSLFVSS
VH 2: EVQLVESGGDLVKPGGSLRLSCVASGFTFSRYHMSWVRQAPGKGLQWVAFINTGRMSTNYADAVKGRFTISRDNAKNTLYLQMNSLRAEDTAVYYCTSLDYWGQGTLVTVSS
VL: SYVLTQLPSKNVTLKQPAHITCGGDNIGSKSVHWYQQKLGQAPVLIIYYDSSRPTGIPERFSGANSGNTATLTISGALAEDEADYYCQVWDSSAKAWVFGEGTQLTVL
EC50 (nM), bispecific killing (FIG. 13E) [1]: 2.88 nM
EC50 (nM), bispecific killing (FIG. 15) [2]: 0.361 nM

binding result [6]: binds
B7: PMX159 in bispecific format (canine CD3 arm PMX159 x Rituximab arm, human IgG4PE knob-in-hole) (bispecific antibody)
heavy 1: ELTLQESGPGLVKPSQTLSLTCVVSGGSVTRSYYWNWIRQRPGRGLEWMGYWTGSTIYNPTFQGRISITADTAKSQFSLQLRSMTTEDTAMYFCAREGGKSLGAFAYWGQGTLVTVSSASTKGPSVFPLAPCSRSTSESTAALGCLVKDYFPEPVTVSWNSGALTSGVHTFPAVLQSSGLYSLSSVVTVPSSSLGTKTYTCNVDHKPSNTKVDKRVESKYGPPCPPCPAPEFEGGPSVFLFPPKPKDTLMISRTPEVTCVVVDVSQEDPEVQFNWYVDGVEVHNAKTKPREEQFNSTYRVVSVLTVLHQDWLNGKEYKCKVSNKGLPSSIEKTISKAKGQPREPQVYTLPPSQCEMTKNQVSLSCAVKGFYPSDIAVEWESNGQPENNYKTTPPVLDSDGSFFLVSRLTVDKSRWQEGNVFSCSVMHEALHNRFTQKSLSLSLGK
light 1: SYVLTQLPSKNVTLKQPAHITCGGDKIGSKNVHWYQQKLGQAPVMIIYYDSSRPTGIPERFSGANSGNTATLTISGALAEDEADYYCQVWDSSAKAAVFGGGTHLTVLRTVAAPSVFIFPPSDEQLKSGTASVVCLLNNFYPREAKVQWKVDNALQSGNSQESVTEQDSKDSTYSLSSTLTLSKADYEKHKVYACEVTHQGLSSPVTKSFNRGEC
heavy 2: not shown
light 2: QIVLSQSPAILSASPGEKVTMTCRASSSVSYIHWFQQKPGSSPKPWIYATSNLASGVPVRFSGSGSGTSYSLTISRVEAEDAATYYCQQWTSNPPTFGGGTKLEIKRTVAAPSVFIFPPSDEQLKSGTASVVCLLNNFYPREAKVQWKVDNALQSGNSQESVTEQDSKDSTYSLSSTLTLSKADYEKHKVYACEVTHQGLSSPVTKSFNRGEC

binding result [6]: binds
B8: PMX160 in bispecific format (canine CD3 arm PMX160 x Rituximab arm, human IgG4PE knob-in-hole) (bispecific antibody)
heavy 1: EVQMVESGGDLVKPGGSLRFSCVASGFTFSSYHMSWVRQAPGKGLQWVAYINSGGSRTSYADAVKGRFTISRDNAKNTLYLQMNSLRAEDTAVYYCASGRSPPPLGSFDYGLDYWGHGTSLFVSSASTKGPSVFPLAPCSRSTSESTAALGCLVKDYFPEPVTVSWNSGALTSGVHTFPAVLQSSGLYSLSSVVTVPSSSLGTKTYTCNVDHKPSNTKVDKRVESKYGPPCPPCPAPEFEGGPSVFLFPPKPKDTLMISRTPEVTCVVVDVSQEDPEVQFNWYVDGVEVHNAKTKPREEQFNSTYRVVSVLTVLHQDWLNGKEYKCKVSNKGLPSSIEKTISKAKGQPREPQVYTLPPSQCEMTKNQVSLSCAVKGFYPSDIAVEWESNGQPENNYKTTPPVLDSDGSFFLVSRLTVDKSRWQEGNVFSCSVMHEALHNRFTQKSLSLSLGK
light 1: B7 light 1 with K26N, N31S, M45L, A97W, G101E, H104Q
heavy 2: not shown
light 2: B7 light 2

binding result [6]: binds
B9: PMX162 in bispecific format (canine CD3 arm PMX162 x Rituximab arm, human IgG4PE knob-in-hole) (bispecific antibody)
heavy 1: EMQLVESGGDLVKPGGSLRLSCVASGFTFSTYHMSWVRQAPGKGLQWVAYSNSGGTRTYYADAVKGRFTISRDNVKNTLYLQMNSLRAEDTAVYYCASEGSGGGRYGFKDYGMDYWGHGTSLFVSTASTKGPSVFPLAPCSRSTSESTAALGCLVKDYFPEPVTVSWNSGALTSGVHTFPAVLQSSGLYSLSSVVTVPSSSLGTKTYTCNVDHKPSNTKVDKRVESKYGPPCPPCPAPEFEGGPSVFLFPPKPKDTLMISRTPEVTCVVVDVSQEDPEVQFNWYVDGVEVHNAKTKPREEQFNSTYRVVSVLTVLHQDWLNGKEYKCKVSNKGLPSSIEKTISKAKGQPREPQVYTLPPSQCEMTKNQVSLSCAVKGFYPSDIAVEWESNGQPENNYKTTPPVLDSDGSFFLVSRLTVDKSRWQEGNVFSCSVMHEALHNRFTQKSLSLSLGK
light 1: B7 light 1 with K26N, N31S, M45L, A97W, G101E, H104Q
heavy 2: not shown
light 2: B7 light 2

The remaining lines, values behind:

B2: PMX251 (monospecific anti-canine CD20, canine IgG-B, lambda C5) (antibody, V domains shown)
VH: B1 VH 2 with R31S, F50Y, T53S, R55G, M56S, N59S, T97A, L99F
VL: SYVLTQLPSKNVTLKQPAHITCGGDNIGSKSVHWYQQKLGQAPVLIIYYDSSRPTGIPERFSGANSGNTATLTISGALAEDEADYYCQVWDSSANVFGGGTHLTVLG
binding result [4]: no binding (tested: 10 µg/ml)

B3: PMX172VH/PMX272VH/PMX172VL (bispecific antibody, V domains shown)
VH 1: B1 VH 1
VH 2: EVQLVESGGDLVKPGGSLRLSCVASGFTFSRYYMNWVRQAPGKGLQWVAYIDSDGSSTSYADAVKGRFTISRDNAKNTLYLQMNSLRADDTAVYYCTSFDYWGQGTLVTVSS
VL: B1 VL
EC50 (nM), bispecific killing (FIG. 13E) [1]: 5.87 nM

B4: PMX244 (monospecific anti-canine CD20, canine IgG-B, lambda C5) (antibody, V domains shown)
VH: B1 VH 2 with F50Y, T53S, R55G, M56S, S57D, T58S, N59D
VL: B2 VL with V44I, S51R, S52R, S92R, A94G
binding result [5]: binds

B5: PMX172VH/PMX239VH/PMX172VL (bispecific antibody, V domains shown)
VH 1: B1 VH 1
VH 2: B3 VH 2 with Y50F, D52T, D54G, A61G, D89E
VL: B1 VL
EC50 (nM), bispecific killing (FIG. 13E) [1]: 2.59 nM

B6: PMX250 (monospecific anti-canine CD20, canine IgG-B, lambda C5) (antibody, V domains shown)
VH: B3 VH 2 with R31S, Y33H, N35S, D52N, D54G, N84T, D89E
VL: B2 VL
binding result [4]: no binding (tested: 10 µg/ml)
